The target in test [1] is T1, displayed FcCH3A, B235 (K392C/D399L), on yeast cell surface (human, UniProt P0DOX5 227-449 = IgG part, chain 1 pos 168 (K392C): said to form an inter-chain disulfide with D399C of the CH3B partner).
T1 construct: also called B235 CH3A chain (yeast)
T1 Fc: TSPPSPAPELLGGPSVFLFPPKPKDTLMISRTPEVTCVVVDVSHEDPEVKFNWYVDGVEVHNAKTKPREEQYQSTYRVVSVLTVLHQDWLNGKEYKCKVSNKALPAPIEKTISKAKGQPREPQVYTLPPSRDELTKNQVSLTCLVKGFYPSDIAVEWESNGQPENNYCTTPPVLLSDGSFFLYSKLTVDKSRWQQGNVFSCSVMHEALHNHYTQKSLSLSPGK
Nature of the test: flow cytometry of diploid yeast: MFI of Flag-tagged secreted FcCH3B held on displayed FcCH3A (anti-Flag mouse mAb and PE anti-mouse antibody), normalised to EW-RVT = 100 %. The text has this: (§1) FACS was sequentially performed four times. […] Table 9 below summarizes the mutation pairs introduced into individual clones selected from the respective LibA2 and LibB2 libraries.

The target of test [2] is T2, Hole-Hole (displayed FcCH3A on yeast cell surface).
T2 construct: also called Hole-Hole (Genentech) CH3A chain (yeast), T366S/L368A/Y407V
T2 Fc: T1 Fc with T142S, L144A, C168K, L175D, Y183V
The test can be described thus: flow cytometry histogram (PE, FL2-H) of diploid yeast: Flag-tagged secreted FcCH3B held on displayed FcCH3A, anti-Flag mouse mAb and PE anti-mouse antibody. On the procedure:
Specifically, the diploid in which the expression of the heterodimeric heavy chain constant region was induced was reacted with an antibody recognizing flag-tag included in the secreted FcCH3B (anti-Flag mouse mAb, F3165) (Sigma-Aldrich) and an antibody conjugated with PE (phycoerythrin conjugated anti-mouse mAb, sc-3738) (Santa Cruz biotechnology), and a signal of PE was analyzed by flow cytometry.
For orientation: Flow cytometry measures light scatter and fluorescence of single cells or particles in a stream.

In test [3] the target is T3, displayed FcCH3A, B239 (K392L/D399L), on yeast cell surface (human, UniProt P0DOX5 227-449 = IgG part).
T3 construct: also called B239 CH3A chain (yeast)
T3 Fc: T1 Fc with C168L
The test can be described thus: flow cytometry of diploid yeast: MFI of Flag-tagged secreted FcCH3B held on displayed FcCH3A (anti-Flag mouse mAb and PE anti-mouse antibody), normalised to EW-RVT = 100 %.
Description: as §1

Test [4] concerns the target T4, displayed FcCH3A, B240 (K392S/K409R/D399L), on yeast cell surface (human, UniProt P0DOX5 227-449 = IgG part).
T4 construct: also called B240 CH3A chain (yeast)
T4 Fc: T1 Fc with C168S, K185R
Described as above.
Description: as §1

The target of test [5] is T5, displayed FcCH3A, B256 (K392N/D399L), on yeast cell surface (human, UniProt P0DOX5 227-449 = IgG part).
T5 construct: also called B256 CH3A chain (yeast)
T5 Fc: T1 Fc with C168N
The test is described as above.
Description: as §1

Positions count from the first letter of the chain named. Names may count otherwise.

B1: secreted FcCH3B, B235 (D399C/K392G/K409M), from yeast (other)
chain: T1 Fc with C168G, L175C, K185M
notes: also called B235 CH3B chain (yeast); not shown: flag-tag
Take B1: in test [1], the binding result was “binds”.

B2: Hole-Hole (secreted FcCH3B from yeast) (other)
secreted Fc chain (hinge-CH2-CH3B): T1 Fc with T142S, L144A, C168K, L175D, Y183V
notes: also called Hole-Hole (Genentech) CH3B chain (yeast), T366S/L368A/Y407V
As for B2, in test [2], the binding result is listed as “no binding”.

B3: secreted FcCH3B, B239 (D399S/K392G/K409M), from yeast (other)
chain: T1 Fc with C168G, L175S, K185M
notes: also called B239 CH3B chain (yeast); not shown: flag-tag
Turning to B3, the binding result in test [3] is “binds”.

B4: secreted FcCH3B, B240 (D399G/K392G/K409M), from yeast (other)
chain: T1 Fc with C168G, L175G, K185M
notes: also called B240 CH3B chain (yeast); not shown: flag-tag
B4: the binding result in test [4] is “binds”.

B5: secreted FcCH3B, B256 (D399V/K392G/K409M), from yeast (other)
chain: T1 Fc with C168G, L175V, K185M
notes: also called B256 CH3B chain (yeast); not shown: flag-tag
Turning to B5, in test [5], the binding result is on record as “binds”.

The values above are taken from patent US20180346600A1 (AJOU UNIVERSITY INDUSTRY ACADEMIC COOPERATION FOUNDATION, published 2018).
